Reference: a protein production outcome set (Wang et al. 2014)

Experiment: label from the status in PepcDB records

Sequence | protein production
MPEAGLAQLVPLTAVALLAGVVDAIAGGGGLLTLPALLWTGLPPHLALGTNKGQSVFGSFAALVRFSRAGMVDGRRARLTFPLGLAGSLAGAGLVLLVPPATLRPVVLALLAFAALFVGLRRGPPARPDGGPRPAAPVVAGAIALAIGAYDGFFGPGTGTFLIVAFVALLGDGLAHASAGAKVVNFASNLAAVTLFSIKGVVVWRIAVPMAVAQLAGGWIGAHLAVRRGDALVRRTAVLVTLALAVKLAWDMRS | failed
MKKKLKLTSLLGLSLLIMTACATNGVTSDITAESADFWSKLVYFFAEIIRFLSFDISIGVGIILFTVLIRTVLLPVFQVQMVASRKMQEAQPRIKALREQYPGRDMESRTKLEQEMRKVFKEMGVRQSDSLWPILIQMPVILALFQALSRVDFLKTGHFLWINLGSVDTTLVLPILAAVFTFLSTWLSNKALSERNGATTAMMYGIPVLIFIFAVYAPGGVALYWTVSNAYQVLQTYFLNNPFKIIAEREAVVQAQKDLENRKRKAKKKAQKTK | failed
GSAASSALKGLIQQFTTITGASESVGKHMLEACNNNLEMAVTMFLDGGG | not failed
MEKDDATASFSPSFSTYSGDRLVEIAERVCYKEKSDAEFEFSTAATSSSGDGGLVFPVFNKNLISGDVSPEKVIPLKDLFLRERNDQQPPQQTYSSSSDEEEEDDEFDSIPSEIYCPWTPARSTADMSPSGGCRKSKSTGSSSTSTWSTKRWRLRDFLKRSKSDGKQSLKFLNPTNRDDDDESSKSKKKVSVSVTVSAHEKFYLRNKAIKEEDKRKSYLPYKQDLVGLFSNIHRYGKTFPPF | failed
MNRNGQRRFLEFFAGGGMARLGLGADWACAFANDFDPVKAATYRANFADAGKHFQEGDVFALSAERLPDADLAWASSPCQDFSLAGARAGLAGGRSSAFFGFWSLMRSLSAEGRAPSVIVIENVVGLLTSHGGADFTALCQALHEEGYRFGALEIDAGAFVPQSRPRVFVVATRNPPGDLVGSSAFHTRAVREAAARLPADLQASWVWWGAPSPPARNTDLASMLEPDDRAVW | failed
MTLPPYHTPLPAETLRALSIPAPWTFGLADRVRFGELDAIGHVNHTAYLRWYESFRLPFLKARHVTDYGPTSPRLVLKQVHCTYLAEMGMGEDYVITGRVSNFRTTSFTMEFACWRLGDAVECTSEGSAVVVLLNRDGSGRYPIPEAGRASFVTEDGVLAAG | not failed
MNMGMVTLAAIRSVPMATTYIRGGTVVSPTGCQDLDVLIDGERIAALVDPELAPFDDPDRTFDHVLEAKGKYVIPGGVDAHTHMEMPFGGTVASDTFETGTRAAAFGGTTTIIDFAIQRQGERVQDTLAAWHAKARGNCAVDYGFHQILGGVDTDALKAMDELVAEGVTSFKLFMAYPGVYYSDDGQILRAMQQCAGNGALTMMHAENGIAIDQLVAQHIERGETSPYYHGVSRPWELEEEATHRAIMLAKITGAPLYVVHVSAKQAMEQIAGARGSGANVFAETCPQYLYLSLEEQLAAPGFEGAKWVCSTPLRSHEEGHQEELWRYIRTGDVATVSTDHCPFCFKGQKEMGLGDFSKIPNGMSGVEHRIDLMYQGVVNGKLSLQRWVDVCATTPARMFGLYPRKGIVSPGADADVVIYDPDGRTSIGFEKNHHSNVDHSTWEGFEVEGCVQTVLSRGTIVVDRGRYLGRKGHGVFLKRGLSQYLI | failed
MLQRIGLIFLHNIVVVSNCFYFQAFLDEFTNWSRINPNKARIPMAGDTQGVVGTVSKPCFTAYEMKIGAITFQVATGDIATEQVDVIVNSTARTFNRKSGVSRAILEGAGQAVESECAVLAAQPHRDFIITPGGCLKCKIIIHVPGGKDVRKTVTSVLEECEQRKYTSVSLPAIGTGNAGKNPITVADNIIDAIVDFSSQHSTPSLKTVKVVIFQPELLNIFYDSMKKRDLSASLNFQSTFSMTTCNLPEHWTDMNHQLFCMVQLEPGQSEYNTIKDKFTRTCSSYAIEKIERIQNAFLWQSYQVKKRQMDIKNDHKNNERLLFHGTDADSVPYVNQHGFNRSCAGKNAVSYGKGTYFAVDASYSAKDTYSKPDSNGRKHMYVVRVLTGVFTKGRAGLVTPPPKNPHNPTDLFDSVTNNTRSPKLFVVFFDNQAYPEYLITFTA | failed
MNQHLLGNPKLTVTHVNEVKAGINHIVVDSVQYGNQEMIMEKDGTVEMRDGEKLYINIFRPNKDGKFPVVMSADTYGKDNKPKITNMGALWPTLGTIPTSSFTPEESPDPGFWVPNDYVVVKVALRGSDKSKGVLSPWSKREAEDYYEVIEWAANQSWSNGNIGTNGVSYLAVTQWWVASLNPPHLKAMIPWEGLNDMYREVAFHGGIPDTGFYRFWTQGIFARWTDNPNIEDLIQAQQEHPLFDDFWKQRQVPLSQIKTPLLTCASWSTQGLHNRGSFEGFKQAASEEKWLYVHGRKEWESYYARENLERQKSFFDFYLKEENNDWKDTPHVIYEVRDQFYKGEFKSASAFPLPNAEYTPLYLNAENHTLNHAKISSAHVAQYDSEDKQQDVSFKYTFDKDTELVGNMNLKLWVSTKDSDDMDLFAGIKKLDRRGNEVNFPDFNHIENGQVATGWLRVSHRELDQEKSSIAQPWHKHETELKLSQDEIVPVEIELLPSGTLFKQGETLEVVVKGSEIVIGNSTPGMKTRYEHEETVNKGMHMIYTGGKYDSQLIIPIVN | not failed
MTKNAASKARIAYVCTECGTEYSKWQGQCTECGTWNCLSQITLGNAGSVKNPTMKHGNWTGQLDPPKITALKDVQHSEQARISTGIGEFDRVLGGGLVAGAVVLIGGDPGIGKSTLLLQALARMASNLPTLYVTGEESLAQVAGRAVRLDLPLEGLNALAETGIESILQHASSARPRLIVADSVQTLWTEALTAAPGSVSQVRESAAQLVRYAKETGTTVFLVGHVTKEGGIAGPRVLEHMVDAVLYFEGESGSRFRLLRAFKNRFGAVNELGVFAMSEKGLKEVANPSAIFLSGRNSDQPGSCVMVTREGTRPLMVEVQALVDTSPLSNPRRVTVGLEQNRLAMLLAVLHRHGNVLVGDQDVFINIVGGIRVQETAADLPVLLAVRSSLCNRALPEKTIAFGEVGLSGEIRPVPNGEERLREAATHGFKHAIVPKANAPKSAIKDMQIIAVERLDQALEASY | failed
MMTDKLNLNVLDAAFYSLEQTVVQISDRNWFDMQPSIVQDTLIAGAIQKFEFVYELSLKMMKRQLQQDAINTDDIGAYGFKDILREALRFGLIGDMSKWVAYRDMRNITSHTYDQEKAMAVYAQIDDFLIESSFLLEQLRQRNQYD | not failed
MTLFTLLLTLAWERLFKQGEHWQIDHRLEVIFRHVSPPSLFQTLFLTLCSMGVVAALLWLTSGILFGLISLLLWIVISLMCIGAGEIRQHYRRYLQAAQRGESDASREMAAELALIHGLPVGTSESEQLKELQNALLWINFRFYLAPLFWFVVAGPYGPVTLMGYAFLRARQTWLARHHTPLERAQSGVDSLLHWLDWIPARLAGAAYALLGHGEKALPAWFASLGDSRSSQYWVLTQLAQFSLARESHIEPVETPKAAVTLAKKVTLVLVVVVALLTIYGALV | failed
MKNRALLLIDFQKGIESPTQQLYRLPAVLDKVNQRIAVYRQHHAPIIFVQHEETELPFGSDSWQLFEKLDTQPTDFFIRKTHANAFYQTNLNDLLTEQAVQTLEIAGVQTEFCVDTTIRMAHGLGYTCLMTPKTTSTLDNGHLTAAQIIQHHEAIWAGRFLTFLSL | not failed
VIVDSVGNVLSDGDTVSITKTIKVKGAQQPLKSGMKARNIRLKPEVGTGPEDHNIECKIDGFGQMILKPAVVKKIV | failed
MSNPLLSIIIPTHNRPHLVTHAVQSALEQTMEDLEVIVVDDASTQPIDLPSHPRLRLIRLLQSHGGAGARNVGLEAALGRWVAFLDDDDRLLPQMAEVSLEALSQTSLPAPVAVISGLEEVNAQGKVLGQRLPPPLRPRGVHFFLEEIEPDQSYNTKQTLVVEREVLQKIGGWDEEMRSRVHSELFLRLNPACSIIGLPIITYQLYNHGGQRVSRNPMLRQESFLRLVHKHKSLFQAHPQMFAKLVYEHANKCYEIGLKREAFYNLFWSMQLDPLQIAPRVVTRVYQSRLKFVIRSYKLKH | failed
MSHAVANKTETEAAPNSSLKQSAAPQPANSHDAKLLNGTLARTNGLTHAASVATSSSGSYGSSSAAGSNAGSGGPTSSASLSIAAGVASSTALPLPPSSNGLQMPYERFRADDTSYVPIAQFYAGRSVFITGGTGFMGKVLVEKLLRSCPEIRNIYLLIRPKRGQEVSARLTELLNAPLFESLRQEKPKELSKVIPISGDITSEELGISEKDQNLLCRNVSVVFHSAATVKFDEKLKLSVTINMLGTKRLVELCHRMLSLDALIHVSTAYCNCDRTDVSEVIYAPPYNPDDIISLINWLPEDILDQLTPRLIGKRPNTYTFTKALAEHMLLKEAGNLPVAIVRPSIVTASLNEPFAGWVDNFNGPTGLVSALAKGMFRTMMCEKNYVADMVPVDIVINLMIAAAWRTATRKSNNLLIYNCCTGQRNPIIWSEFVKHAMTSVRKHPLEGCLWYPTGDLRMNRPMNTLNCIAKHFLPAYILDGVARIMGKKPFVVNVQNKIAKAVECLEYFATRQWRFKDDNVHALLHTLSPKDREIFVFDVRHINWDKYVERYVLGFREFLFKQRPESLPASRKRMLRLYYLHQLTKLVAVLLTWRFLMSRSKRLNDLWSSFLENALRMARLIPFL | failed
VITVGNYKGGAGKTTNVVLLAYKLAKKGLKVCVLDLDPQSNATKSLLLTKSSLYQDEVVTIEKTLMTGISEKNLDGLEVKIMDNLYLLPSYIDFEDFPKYLYKNTSNQREEDYYLKNIFTPLQGKYDIVLIDVPPMSKAVTRNAVICSDYVLISLQTHERSLSGAESYVEELNKLHNEYDLDLEVVGVLPVIHKNNGSVDQYVMEVAKETFGEDNLFENVVPQMERIKRFDVNGITDKDRHDQKVLNLYDKVSDELLD | failed
MKITLIIPTYNAGSIWPNVLDAIKQQTIYPDKLIVIDSGSKDETVLLASDLKNISIFNIDSKDFNHGGTRNLAVTKTLDADVIIFLTQDAILADSDAIKNLVYYFSDPLIAAVCGRQLPHKDANPLAVHARNFNYSSKSIVKSKADIEKFGIKTVFMSNSFAAYRRSVFEELSGFPEHTILAEDMFMAAKMIQAGYKVAYCAEAVVRHSHNYTPREEFQRYFDTGVFHACSPWIQRDLGGAGGEGFRFVKSEIQFLLKNAPFWIPRALLTTFAKFLGYKLGKHWQSLPLSTCRYFSMYKSYWNNIQYSSSKEIKLEHHHHHH | failed
MNRNRLPALTPGLAWSRPMNGAVDHKGYEQPTYDLEFAETATEIRRYGPYLVAEVTMAGDRSTAITRGFRVLARYIFGGNAESRRIEMTVPVSQLPAGEDLWTVRFTMPAVRSASLLPAPKDSRIRFVTVPPSRQAVRRFSGWPTDHALRRQAEGLAHWIAERGLPKREGPYFYFYDSPMTLPWQRRNEVAFGLGEGLEHHHHHH | not failed
NIKNILSERVSAAMVAAGLPEGTNPAISLSNRPQFGDYQANGVMGAAKKLKTNPRELATKVVAELDLDGIASKIELAGPGFINIHLDESWLAAQLNEVAQDDFIGVAQRGTT | not failed
MTKEKSTVPRLRFPGFTDAWKQRKLGEVADFSIKTNSLSRDKLSSYFYEVQNIHYGDILTKYDAILDVCNKELPSIIGSTISDFADALLSEGDIVFADAAEDSTVGKAIEVRNFKGKNVVSGLHTIVARPKVSYAPYYLGYLINSTAYHNQILPLMQGTKVSSISKANLKSTTVVFPTLPEQEAIGSFFSDLDQLITLHQRKLDDVKELKKALLQKMFPKGNGNDFPELRFPEFTDAWKQRKLGEFMKESKILGSKGDIARKLTVRLWGRGVVSKKEIYSGSSATQYYIRKSGQFIYGKLDFLNQAFGIIPPELDGYESTLDSPAFDLLKGINGQFLLEFVSRKEFYYYQGNIANGSRKAKRIHTETFLGMPISLPTLPEQEAIGSFFSDLDQLITLHQRK | failed
